Source: paper PMC7834972

Biological target: SARS-CoV-2 S-I53-50A.1NT1 fusion protein (SARS-CoV-2)
Assay: SEC; Superose 6 increase 10/300 GL in TBS with 5% glycerol; fractions between 12-14 mL pooled; blue native gel of the pooled fractions

Substance: SARS-CoV-2 S-I53-50A.1NT1 fusion protein
- stoichiometry N: 3
